First the molecules themselves.
T1: cynomolgus monkey ST2 antigen (Cyno-ST2-his, Sino biological, 90915-C08H) (cynomolgus monkey, UniProt Q01638 19-328 (human entry))
T1 construct: Bought protein; not shown: his tag
T1 chain: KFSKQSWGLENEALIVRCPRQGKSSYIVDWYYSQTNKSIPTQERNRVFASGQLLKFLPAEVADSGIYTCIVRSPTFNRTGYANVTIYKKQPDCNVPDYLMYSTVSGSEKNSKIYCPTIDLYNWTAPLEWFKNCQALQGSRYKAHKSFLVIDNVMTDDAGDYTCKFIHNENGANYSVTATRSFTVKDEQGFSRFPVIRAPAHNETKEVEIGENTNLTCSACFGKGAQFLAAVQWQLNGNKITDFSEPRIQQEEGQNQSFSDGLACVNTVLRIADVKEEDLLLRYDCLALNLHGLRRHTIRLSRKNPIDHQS

T2: recombinant protein containing hST2 extracellular domain with mouse antibody heavy chain Fc tag (hST2-ECD-mFc) (human)
T2 construct: Used for SPR and for ELISA of chimeric and humanized antibodies; also called human ST2 antigen
T2 chain: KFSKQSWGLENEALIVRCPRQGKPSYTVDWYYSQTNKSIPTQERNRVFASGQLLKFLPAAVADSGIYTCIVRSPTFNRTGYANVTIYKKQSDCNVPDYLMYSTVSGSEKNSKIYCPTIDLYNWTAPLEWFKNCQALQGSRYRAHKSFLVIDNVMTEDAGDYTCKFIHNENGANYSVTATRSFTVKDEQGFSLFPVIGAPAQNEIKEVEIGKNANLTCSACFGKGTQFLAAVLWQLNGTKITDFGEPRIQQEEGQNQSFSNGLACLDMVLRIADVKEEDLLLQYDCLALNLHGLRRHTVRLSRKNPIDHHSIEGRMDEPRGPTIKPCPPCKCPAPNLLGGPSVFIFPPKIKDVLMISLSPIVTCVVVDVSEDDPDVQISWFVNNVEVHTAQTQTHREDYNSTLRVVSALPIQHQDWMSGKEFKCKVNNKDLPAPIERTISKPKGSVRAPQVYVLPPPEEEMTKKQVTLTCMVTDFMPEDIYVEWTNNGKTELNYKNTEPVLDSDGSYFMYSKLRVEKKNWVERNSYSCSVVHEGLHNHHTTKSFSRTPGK

T3: cynomolgus monkey ST2 on HEK293T-Cyno-ST2-NFκB-Luciferase cells (cynomolgus monkey, UniProt Q01638 19-556 (human entry))
T3 chain: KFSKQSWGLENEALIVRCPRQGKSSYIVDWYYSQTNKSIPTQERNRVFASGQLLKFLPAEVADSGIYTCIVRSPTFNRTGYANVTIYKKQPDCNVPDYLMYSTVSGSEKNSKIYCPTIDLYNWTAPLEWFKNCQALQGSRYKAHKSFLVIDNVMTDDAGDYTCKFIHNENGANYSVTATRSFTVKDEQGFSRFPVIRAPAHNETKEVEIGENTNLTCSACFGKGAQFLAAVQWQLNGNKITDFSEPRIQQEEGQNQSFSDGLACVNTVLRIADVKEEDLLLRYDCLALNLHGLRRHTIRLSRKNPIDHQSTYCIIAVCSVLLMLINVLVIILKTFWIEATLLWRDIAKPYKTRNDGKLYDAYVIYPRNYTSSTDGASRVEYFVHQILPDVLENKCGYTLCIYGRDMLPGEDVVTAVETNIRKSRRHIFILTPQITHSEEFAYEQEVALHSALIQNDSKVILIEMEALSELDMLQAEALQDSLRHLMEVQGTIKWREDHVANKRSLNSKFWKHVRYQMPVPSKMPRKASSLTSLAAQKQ

B1: Chimeric 7D1 (antibody, human IgG2, kappa, V domains shown)
VH: QVQLQQSGAELVRPGASVTLSCKASGYTFTDYEMHWVKQTPVHGLDWIGTIDPETGDTAYNQKFKGRATLTADKSSSTAYMELSSLTSEDSAVYYCTRYSYTNSPYGMDYWGQGTSVTVSS
VL: DVVMTQTPKFLLVSAGDRVTITCKASQSVSNDVAWYQQKPGQSPKLLIYYASNRYTGVPDRFTGSGYGTDFTFTINTVQAEDLAVYFCQQDYSSPYTFGGGTKLEIKR
notes: also called xi7D1
B2: RG6149 (antibody Ab2 in CN104334582, prepared in-house) (antibody, human IgG2, kappa, V domains shown)
VH: EVQLVQSGAEVKKPGESLKISCKGSGYSFTNYWIGWVRQMPGKGLEWMGIIYPGNSDTRFSPSFQGQVTISADKSITTAYLQWSSLKASDTAMYYCARHGTSSDYYGLDVWGQGTTVTVSS
VL: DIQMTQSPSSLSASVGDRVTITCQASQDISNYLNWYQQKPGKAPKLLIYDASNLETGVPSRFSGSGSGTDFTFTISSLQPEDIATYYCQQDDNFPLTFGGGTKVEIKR
notes: Control anti-ST2 antibody
B3: Chimeric 31C8 (antibody, human IgG2, kappa, V domains shown)
VH: QVQLQQSGPELVRPGASVTLSCKASGYIFIDSEMHWVKQTPVHGLEWIGAIDPETGDTVYNQKFKGKATLTADKSSSTASMELSSLTSEDSAVYYCTGSTTDYYFAYWGQGTTLTVSS
VL: DIVMTQAAFSNPVTLGTSASISCRSSKSLLHSNGIIYLYWYLQKPGQSPQLLIYQMSNLASGVPDRFSSSGSGTDFTLRISRVEAEDVGVYYCAQNLELPFTFGSGTKLEIKR
notes: also called xi31C8
B4: Chimeric 3C6 (antibody, human IgG2, kappa, V domains shown)
VH: QVQLQQSGAEVVRPGASVTLSCKASDYTITDYEMHWVKQTPVHGLEWIGAIDPETGDTAYSQNFKGKATLTADESSSTAYMELSSLTSEDSAVYYCSRSATDYYFASWGQGTTLTVSS
VL: B3 VL with F9I, I21M, I36T, Q47H, R79K
notes: also called xi3C6
B5: Chimeric 8F4 (antibody, human IgG2, kappa, V domains shown)
VH: B3 VH with P9A, Y27H, I30T, S32Y, H35Q, I51F, V59A, S80Y, T97S, T113S
VL: B3 VL with I2V, A7T
notes: also called xi8F4
B6: Chimeric 26A1 (antibody, human IgG2, kappa, V domains shown)
VH: B3 VH with P9A, G26D, I30T, M34I, P41L, V59A, S80Y, D90G, T97S, Y103C
VL: B3 VL
notes: also called xi26A1
B7: Chimeric 17E2 (antibody, human IgG2, kappa, V domains shown)
VH: QVQLQQSGAELVRPGASVTLSCKASGYTFTDYEMHWVKQTPVLGLEWIGAIDPETGDTAYNQKFKGKATLTADKSSSTAYMELSSLASEDSAVYYCIRVDSNYDYFDYWGQDTTLTVSS
VL: DIVLTQSPPILSASPGEKVTMTCRASSSVSYMHWYQQKPGSSPKPWIYDTSNLASGVPARFSGSGSGTSYSLTISRVEAEDAATYYCQQWSSNPLTFGAGTKLELKR
notes: also called xi17E2

These results are taken from patent US20230272086A1 (CHIA TAI TIANQING PHARMACEUTICAL GROUP, published 2023).

Substitutions are numbered along the chain they refer to.

For one assay, the target named is T1, cynomolgus monkey ST2 antigen …. As to the kind of experiment: SPR (Biacore T200), Cyno-ST2-his captured by anti-his antibody on CM5, antibody as analyte, 1:1 model. Here is the method:
(§1) The reaction signals were detected in real time using a Biacore instrument (Cytiva, BiacoreT200), and then an association-dissociation curve was obtained. After the completion of dissociation in each cycle, the biochip was regenerated with a regeneration solution for the next capture; the procedure was repeated until the affinity of the different antibodies for ST2 was determined. The acquired data were finally analyzed using the GE BIAevaluation software with a 1:1 (Langmuir) binding model to determine the association rate constants ka (kon) and the dissociation rate constants kd (koff), and the dissociation constants KD were given by KD = kd/ka. The determined affinity of the anti-ST2 antibody for human ST2 antigen (hST2-ECD-mFc), cynomolgus monkey ST2 antigen (Cyno-ST2-his, Sino biological, 90915-C08H) and the determined affinity of the anti-ST2 chimeric antibodies for ST2 were shown in Table 5.
Background: Surface plasmon resonance follows binding to a sensor surface in real time, without labels.
A word on the Kd: it is a measure of binding affinity in units of concentration. With B1, binding was characterised by a dissociation constant (Kd) of 0.124 nM.

Take B2: the Kd worked out at 0.049 nM.

B3 displayed a Kd of 0.323 nM.

As for B4, binding was put at a Kd of 152 nM.

Molecule B5 returned a Kd of 4.04 nM.

Regarding B6, the Kd turned out to be 69.8 nM.

B7 had a Kd of 0.0257 nM.

The next assay deals with T2, recombinant protein containing hST2 …. Briefly: SPR (Biacore T200), hST2-ECD-mFc captured by anti-mouse IgG on CM5, antibody as analyte, 1:1 model. The method, then: as §1
Consider B1, for which the Kd turned out to be 0.145 nM.

Take B2: the Kd was found to be 0.0686 nM.

B3: the Kd was 0.0177 nM.

B4: the dissociation constant (Kd) was determined as 0.0872 nM.

Turning to B5, the Kd worked out at 0.0933 nM.

With B6, the Kd was 0.0299 nM.

B7: the Kd came out at 0.0541 nM.

The next assay deals with T3, cynomolgus monkey ST2 on …. As to the kind of experiment: flow cytometry on HEK293T-Cyno-ST2-NFκB-Luciferase cells. The method, then: The binding capacity of the anti-ST2 antibodies to hST2-overexpressing cell lines and cyno-ST2-overexpressing cell lines was analyzed using an FACS-based method through binding assays with the hST2 (SEQ ID NO:1)-overexpressing HEK293T cell line (HEK293T-hST2-NFκB-Luciferase) and the cynomolgus monkey ST2 (SEQ ID NO: 10)-overexpressing HEK293T cell line (HEK293T-Cyno-ST2-NFKB-Luciferase). HEK293 cells were transfected with the pLenti6.3- hST2 plasmid and the pLenti6.3-NFκB-luciferasae plasmid using a lentiviral transfection system to construct the cell line HEK293T-hST2-NFκB-Luciferase. HEK293T cells were transfected with the pLenti6.3-cynoST2 plasmid and the pLenti6.3-NFκB-luciferasae plasmid to construct the cell line HEK293T-Cyno-ST2-NFκB-Luciferase.
3 × 10⁵ HEK293T-hST2-NFκB-Luciferase or HEK293T-Cyno-ST2-NFκB-Luciferase cells were added to a 96-well culture plate. Serially diluted anti-ST2 antibodies (serially diluted 4-fold from an initial concentration of 667 nM to 8 concentrations in binding assays with the HEK293T-hST2-NFκB-Luciferase cells; serially diluted 4-fold from an initial concentration of 400 nM to 8 concentrations in binding assays with the HEK293T-Cyno-ST2-NFκB-Luciferase cells) were added to the cell suspensions. After the plate was incubated at room temperature for 60 min, the cells were washed 3 times with PBS. […] The cells were washed 3 times with PBS and resuspended in 100 µ1L of PBS, and then the fluorescence signals were analyzed and detected using a flow cytometer (BD, Accuri C6). The binding capacity of the anti-ST2 antibodies to hST2 and cyno-ST2 on the cell line surfaces was measured in terms of the mean fluorescence intensity (MFI) of staining. The data were analyzed using GraphPad Prism5, and the EC₅₀ values were calculated. The EC₅₀ values for the binding of the anti-ST2 chimeric antibodies to hST2 and Cyno-ST2 at the cellular level are shown in Table 8 and FIGS. 7-8.
Broadly, the EC50 is the concentration giving half of the maximal effect. In the case of B1, the EC50 worked out at 0.394 nM.

As for B2, the EC50 was found to be 0.647 nM.

B3 had an EC50 of 0.83 nM.

For B4, the EC50 came out at 105 nM.

In turn, B5 registered an EC50 of 0.458 nM.

B6 showed an EC50 of 415 nM.

Take B7: it took 0.487 nM to reach a half-maximal effect (EC50).
